In publication doi:10.1101/2021.04.26.440876, “Fluoxetine targets an allosteric site in the enterovirus 2C AAA+ ATPase and stabilizes the hexameric complex” (bioRxiv, 2021):

Target: the molecule itself
Assay: SEC; size exclusion chromatography gel filtration profile of the MBP-tagged full-length preparation (Figure S9)

B1: MBP-tagged full-length CV-B3 2C (natural protein)
chain: NNSWLKKFTEMTNACKGMEWIAVKIQKFIEWLKVKILPEVREKHEFLNRLKQLPLLESQIATIEQSAPSQSDQEQLFSNVQYFAHYCRKYAPLYAAEAKRVFSLEKKMSNYIQFKSKCRIEPVCLLLHGSPGAGKSVATNLIGRSLAEKLNSSVYSLPPDPDHFDGYKQQAVVIMDDLCQNPDGKDVSLFCQMVSSVDFVPPMAALEEKGILFTSPFVLASTNAGSINAPTVSDSRALARRFHFDMNIEVISMYSQNGKINMPMSVKTCDDECCPVNFKKCCPLVCGKAIQFIDRRTQVRYSLDMLVTEMFREYNHRHSVGTTLEALFQ
notes: coxsackievirus B3 non-structural protein 2C (cut product of the polyprotein), full length (329 residues by the printed limits of the other constructs); source: purified
  binding result: binds
